Measured values from PMC5474359.

Molecular target: T1, CD-86, P42081
T1 chain: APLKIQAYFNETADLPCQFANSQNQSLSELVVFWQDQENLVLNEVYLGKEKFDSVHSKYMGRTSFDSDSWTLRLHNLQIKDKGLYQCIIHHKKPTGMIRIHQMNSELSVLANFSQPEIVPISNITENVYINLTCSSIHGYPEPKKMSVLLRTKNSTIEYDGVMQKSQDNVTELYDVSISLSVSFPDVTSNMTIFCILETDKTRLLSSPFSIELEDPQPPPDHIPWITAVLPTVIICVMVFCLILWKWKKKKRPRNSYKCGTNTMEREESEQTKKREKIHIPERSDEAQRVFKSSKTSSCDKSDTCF
Test: fluorescence correlation spectroscopy with photon counting histogram
Conditions: remark: other sources report otherwise

B1: CD-86, P42081 24-329 (receptor)
chain: T1 chain
B1 gave a PCH molecular brightness of 9360 CPSM.
